# Test results reported in patent publication US11965039B2, “Compstatin analogues and their medical uses” (priority 2018, dated 2024).
# Positions of bridges follow the written chain, without caps; N, C: chain ends. Non-standard residues stand in square brackets, D forms with d. Sar = CNCC(=O)O
# B1: Compound 33 (peptide)
# peptide: Ac-EICIWQDWGEHRCTE-NH2
# modifications: disulfide 3-13
# SMILES: CC[C@H](C)[C@@H]1NC(=O)[C@@H](NC(=O)[C@@H](NC(=O)[C@H](CCC(=O)O)NC(C)=O)[C@@H](C)CC)CSSC[C@@H](C(=O)N[C@H](C(=O)N[C@@H](CCC(=O)O)C(N)=O)[C@@H](C)O)NC(=O)[C@H](CCCNC(=N)N)NC(=O)[C@H](Cc2c[nH]cn2)NC(=O)[C@H](CCC(=O)O)NC(=O)CNC(=O)[C@H](Cc2c[nH]c3ccccc23)NC(=O)[C@H](CC(=O)O)NC(=O)[C@H](CCC(N)=O)NC(=O)[C@H](Cc2c[nH]c3ccccc23)NC1=O
# B2: Compound 41 (peptide)
# peptide: Ac-SAICIWQDWGEHRC[Sar]E-NH2
# modifications: disulfide 4-14
# SMILES: CC[C@H](C)[C@H](NC(=O)[C@H](C)NC(=O)[C@H](CO)NC(C)=O)C(=O)N[C@H]1CSSC[C@@H](C(=O)N(C)CC(=O)N[C@@H](CCC(=O)O)C(N)=O)NC(=O)[C@H](CCCNC(=N)N)NC(=O)[C@H](Cc2c[nH]cn2)NC(=O)[C@H](CCC(=O)O)NC(=O)CNC(=O)[C@H](Cc2c[nH]c3ccccc23)NC(=O)[C@H](CC(=O)O)NC(=O)[C@H](CCC(N)=O)NC(=O)[C@H](Cc2c[nH]c3ccccc23)NC(=O)[C@H]([C@@H](C)CC)NC1=O
# B3: Compound 46 (peptide)
# peptide: Ac-ESSAICIWQDWGAHRCT-NH2
# modifications: disulfide 6-16
# SMILES: CC[C@H](C)[C@H](NC(=O)[C@H](C)NC(=O)[C@H](CO)NC(=O)[C@H](CO)NC(=O)[C@H](CCC(=O)O)NC(C)=O)C(=O)N[C@H]1CSSC[C@@H](C(=O)N[C@H](C(N)=O)[C@@H](C)O)NC(=O)[C@H](CCCNC(=N)N)NC(=O)[C@H](Cc2c[nH]cn2)NC(=O)[C@H](C)NC(=O)CNC(=O)[C@H](Cc2c[nH]c3ccccc23)NC(=O)[C@H](CC(=O)O)NC(=O)[C@H](CCC(N)=O)NC(=O)[C@H](Cc2c[nH]c3ccccc23)NC(=O)[C@H]([C@@H](C)CC)NC1=O
# B4: Compound 42 (peptide)
# peptide: Ac-SAICIWQDWGEHRCTEG-NH2
# modifications: disulfide 4-14
# SMILES: CC[C@H](C)[C@H](NC(=O)[C@H](C)NC(=O)[C@H](CO)NC(C)=O)C(=O)N[C@H]1CSSC[C@@H](C(=O)N[C@H](C(=O)N[C@@H](CCC(=O)O)C(=O)NCC(N)=O)[C@@H](C)O)NC(=O)[C@H](CCCNC(=N)N)NC(=O)[C@H](Cc2c[nH]cn2)NC(=O)[C@H](CCC(=O)O)NC(=O)CNC(=O)[C@H](Cc2c[nH]c3ccccc23)NC(=O)[C@H](CC(=O)O)NC(=O)[C@H](CCC(N)=O)NC(=O)[C@H](Cc2c[nH]c3ccccc23)NC(=O)[C@H]([C@@H](C)CC)NC1=O
# B5: Compound 34 (peptide)
# peptide: Ac-EICIWQDWGEHRCTEGE-NH2
# modifications: disulfide 3-13
# SMILES: CC[C@H](C)[C@@H]1NC(=O)[C@@H](NC(=O)[C@@H](NC(=O)[C@H](CCC(=O)O)NC(C)=O)[C@@H](C)CC)CSSC[C@@H](C(=O)N[C@H](C(=O)N[C@@H](CCC(=O)O)C(=O)NCC(=O)N[C@@H](CCC(=O)O)C(N)=O)[C@@H](C)O)NC(=O)[C@H](CCCNC(=N)N)NC(=O)[C@H](Cc2c[nH]cn2)NC(=O)[C@H](CCC(=O)O)NC(=O)CNC(=O)[C@H](Cc2c[nH]c3ccccc23)NC(=O)[C@H](CC(=O)O)NC(=O)[C@H](CCC(N)=O)NC(=O)[C@H](Cc2c[nH]c3ccccc23)NC1=O
# B6: Compound 38 (peptide)
# peptide: Ac-EKGICIWQDWGEHRCTEKP-NH2
# modifications: disulfide 5-15
# SMILES: CC[C@H](C)[C@H](NC(=O)CNC(=O)[C@H](CCCCN)NC(=O)[C@H](CCC(=O)O)NC(C)=O)C(=O)N[C@H]1CSSC[C@@H](C(=O)N[C@H](C(=O)N[C@@H](CCC(=O)O)C(=O)N[C@@H](CCCCN)C(=O)N2CCC[C@H]2C(N)=O)[C@@H](C)O)NC(=O)[C@H](CCCNC(=N)N)NC(=O)[C@H](Cc2c[nH]cn2)NC(=O)[C@H](CCC(=O)O)NC(=O)CNC(=O)[C@H](Cc2c[nH]c3ccccc23)NC(=O)[C@H](CC(=O)O)NC(=O)[C@H](CCC(N)=O)NC(=O)[C@H](Cc2c[nH]c3ccccc23)NC(=O)[C@H]([C@@H](C)CC)NC1=O
# B7: Compound 37 (peptide)
# peptide: Ac-KEKICIWQDWGEHRCTEKE-NH2
# modifications: disulfide 5-15
# SMILES: CC[C@H](C)[C@@H]1NC(=O)[C@@H](NC(=O)[C@@H](NC(=O)[C@H](CCCCN)NC(=O)[C@H](CCC(=O)O)NC(=O)[C@H](CCCCN)NC(C)=O)[C@@H](C)CC)CSSC[C@@H](C(=O)N[C@H](C(=O)N[C@@H](CCC(=O)O)C(=O)N[C@@H](CCCCN)C(=O)N[C@@H](CCC(=O)O)C(N)=O)[C@@H](C)O)NC(=O)[C@H](CCCNC(=N)N)NC(=O)[C@H](Cc2c[nH]cn2)NC(=O)[C@H](CCC(=O)O)NC(=O)CNC(=O)[C@H](Cc2c[nH]c3ccccc23)NC(=O)[C@H](CC(=O)O)NC(=O)[C@H](CCC(N)=O)NC(=O)[C@H](Cc2c[nH]c3ccccc23)NC1=O
# B8: Compound 36 (peptide)
# peptide: Ac-ESEICIWQDWGEHRCEGE-NH2
# modifications: disulfide 5-15
# SMILES: CC[C@H](C)[C@@H]1NC(=O)[C@@H](NC(=O)[C@@H](NC(=O)[C@H](CCC(=O)O)NC(=O)[C@H](CO)NC(=O)[C@H](CCC(=O)O)NC(C)=O)[C@@H](C)CC)CSSC[C@@H](C(=O)N[C@@H](CCC(=O)O)C(=O)NCC(=O)N[C@@H](CCC(=O)O)C(N)=O)NC(=O)[C@H](CCCNC(=N)N)NC(=O)[C@H](Cc2c[nH]cn2)NC(=O)[C@H](CCC(=O)O)NC(=O)CNC(=O)[C@H](Cc2c[nH]c3ccccc23)NC(=O)[C@H](CC(=O)O)NC(=O)[C@H](CCC(N)=O)NC(=O)[C@H](Cc2c[nH]c3ccccc23)NC1=O
# B9: Compound 44 (peptide)
# peptide: Ac-EGSAICIWQDWGEHRC[Sar]EGE-NH2
# modifications: disulfide 6-16
# SMILES: CC[C@H](C)[C@H](NC(=O)[C@H](C)NC(=O)[C@H](CO)NC(=O)CNC(=O)[C@H](CCC(=O)O)NC(C)=O)C(=O)N[C@H]1CSSC[C@@H](C(=O)N(C)CC(=O)N[C@@H](CCC(=O)O)C(=O)NCC(=O)N[C@@H](CCC(=O)O)C(N)=O)NC(=O)[C@H](CCCNC(=N)N)NC(=O)[C@H](Cc2c[nH]cn2)NC(=O)[C@H](CCC(=O)O)NC(=O)CNC(=O)[C@H](Cc2c[nH]c3ccccc23)NC(=O)[C@H](CC(=O)O)NC(=O)[C@H](CCC(N)=O)NC(=O)[C@H](Cc2c[nH]c3ccccc23)NC(=O)[C@H]([C@@H](C)CC)NC1=O
# B10: Compound 45 (peptide)
# peptide: Ac-EGSAFCIWQDWGEHRC[Sar]E-NH2
# modifications: disulfide 6-16
# SMILES: CC[C@H](C)[C@@H]1NC(=O)[C@@H](NC(=O)[C@H](Cc2ccccc2)NC(=O)[C@H](C)NC(=O)[C@H](CO)NC(=O)CNC(=O)[C@H](CCC(=O)O)NC(C)=O)CSSC[C@@H](C(=O)N(C)CC(=O)N[C@@H](CCC(=O)O)C(N)=O)NC(=O)[C@H](CCCNC(=N)N)NC(=O)[C@H](Cc2c[nH]cn2)NC(=O)[C@H](CCC(=O)O)NC(=O)CNC(=O)[C@H](Cc2c[nH]c3ccccc23)NC(=O)[C@H](CC(=O)O)NC(=O)[C@H](CCC(N)=O)NC(=O)[C@H](Cc2c[nH]c3ccccc23)NC1=O
# B11: Compound 35 (peptide)
# peptide: Ac-EGEICIWQDWGEHRCEGE-NH2
# modifications: disulfide 5-15
# SMILES: CC[C@H](C)[C@@H]1NC(=O)[C@@H](NC(=O)[C@@H](NC(=O)[C@H](CCC(=O)O)NC(=O)CNC(=O)[C@H](CCC(=O)O)NC(C)=O)[C@@H](C)CC)CSSC[C@@H](C(=O)N[C@@H](CCC(=O)O)C(=O)NCC(=O)N[C@@H](CCC(=O)O)C(N)=O)NC(=O)[C@H](CCCNC(=N)N)NC(=O)[C@H](Cc2c[nH]cn2)NC(=O)[C@H](CCC(=O)O)NC(=O)CNC(=O)[C@H](Cc2c[nH]c3ccccc23)NC(=O)[C@H](CC(=O)O)NC(=O)[C@H](CCC(N)=O)NC(=O)[C@H](Cc2c[nH]c3ccccc23)NC1=O
# B12: Compound 39 (peptide)
# peptide: Ac-ICIWQDWGEHRCTEGK-NH2
# modifications: disulfide 2-12
# SMILES: CC[C@H](C)[C@H](NC(C)=O)C(=O)N[C@H]1CSSC[C@@H](C(=O)N[C@H](C(=O)N[C@@H](CCC(=O)O)C(=O)NCC(=O)N[C@@H](CCCCN)C(N)=O)[C@@H](C)O)NC(=O)[C@H](CCCNC(=N)N)NC(=O)[C@H](Cc2c[nH]cn2)NC(=O)[C@H](CCC(=O)O)NC(=O)CNC(=O)[C@H](Cc2c[nH]c3ccccc23)NC(=O)[C@H](CC(=O)O)NC(=O)[C@H](CCC(N)=O)NC(=O)[C@H](Cc2c[nH]c3ccccc23)NC(=O)[C@H]([C@@H](C)CC)NC1=O
# B13: Compound 32 (peptide)
# peptide: Ac-SEICIWQDWGEHRCTEA-NH2
# modifications: disulfide 4-14
# SMILES: CC[C@H](C)[C@@H]1NC(=O)[C@@H](NC(=O)[C@@H](NC(=O)[C@H](CCC(=O)O)NC(=O)[C@H](CO)NC(C)=O)[C@@H](C)CC)CSSC[C@@H](C(=O)N[C@H](C(=O)N[C@@H](CCC(=O)O)C(=O)N[C@@H](C)C(N)=O)[C@@H](C)O)NC(=O)[C@H](CCCNC(=N)N)NC(=O)[C@H](Cc2c[nH]cn2)NC(=O)[C@H](CCC(=O)O)NC(=O)CNC(=O)[C@H](Cc2c[nH]c3ccccc23)NC(=O)[C@H](CC(=O)O)NC(=O)[C@H](CCC(N)=O)NC(=O)[C@H](Cc2c[nH]c3ccccc23)NC1=O
# B14: Compound 40 (peptide)
# peptide: Ac-GSAICIWQDWGEHRC[Sar]E-NH2
# modifications: disulfide 5-15
# SMILES: CC[C@H](C)[C@H](NC(=O)[C@H](C)NC(=O)[C@H](CO)NC(=O)CNC(C)=O)C(=O)N[C@H]1CSSC[C@@H](C(=O)N(C)CC(=O)N[C@@H](CCC(=O)O)C(N)=O)NC(=O)[C@H](CCCNC(=N)N)NC(=O)[C@H](Cc2c[nH]cn2)NC(=O)[C@H](CCC(=O)O)NC(=O)CNC(=O)[C@H](Cc2c[nH]c3ccccc23)NC(=O)[C@H](CC(=O)O)NC(=O)[C@H](CCC(N)=O)NC(=O)[C@H](Cc2c[nH]c3ccccc23)NC(=O)[C@H]([C@@H](C)CC)NC1=O
# Biological target: Human C3 (Complement tech cat #A113c) (human, UniProt P01024 23-1663)
# Experiment: cell-based or functional assay
# Human C3 (Complement tech cat #A113c), sequence (P01024 23-1663 limits assumed): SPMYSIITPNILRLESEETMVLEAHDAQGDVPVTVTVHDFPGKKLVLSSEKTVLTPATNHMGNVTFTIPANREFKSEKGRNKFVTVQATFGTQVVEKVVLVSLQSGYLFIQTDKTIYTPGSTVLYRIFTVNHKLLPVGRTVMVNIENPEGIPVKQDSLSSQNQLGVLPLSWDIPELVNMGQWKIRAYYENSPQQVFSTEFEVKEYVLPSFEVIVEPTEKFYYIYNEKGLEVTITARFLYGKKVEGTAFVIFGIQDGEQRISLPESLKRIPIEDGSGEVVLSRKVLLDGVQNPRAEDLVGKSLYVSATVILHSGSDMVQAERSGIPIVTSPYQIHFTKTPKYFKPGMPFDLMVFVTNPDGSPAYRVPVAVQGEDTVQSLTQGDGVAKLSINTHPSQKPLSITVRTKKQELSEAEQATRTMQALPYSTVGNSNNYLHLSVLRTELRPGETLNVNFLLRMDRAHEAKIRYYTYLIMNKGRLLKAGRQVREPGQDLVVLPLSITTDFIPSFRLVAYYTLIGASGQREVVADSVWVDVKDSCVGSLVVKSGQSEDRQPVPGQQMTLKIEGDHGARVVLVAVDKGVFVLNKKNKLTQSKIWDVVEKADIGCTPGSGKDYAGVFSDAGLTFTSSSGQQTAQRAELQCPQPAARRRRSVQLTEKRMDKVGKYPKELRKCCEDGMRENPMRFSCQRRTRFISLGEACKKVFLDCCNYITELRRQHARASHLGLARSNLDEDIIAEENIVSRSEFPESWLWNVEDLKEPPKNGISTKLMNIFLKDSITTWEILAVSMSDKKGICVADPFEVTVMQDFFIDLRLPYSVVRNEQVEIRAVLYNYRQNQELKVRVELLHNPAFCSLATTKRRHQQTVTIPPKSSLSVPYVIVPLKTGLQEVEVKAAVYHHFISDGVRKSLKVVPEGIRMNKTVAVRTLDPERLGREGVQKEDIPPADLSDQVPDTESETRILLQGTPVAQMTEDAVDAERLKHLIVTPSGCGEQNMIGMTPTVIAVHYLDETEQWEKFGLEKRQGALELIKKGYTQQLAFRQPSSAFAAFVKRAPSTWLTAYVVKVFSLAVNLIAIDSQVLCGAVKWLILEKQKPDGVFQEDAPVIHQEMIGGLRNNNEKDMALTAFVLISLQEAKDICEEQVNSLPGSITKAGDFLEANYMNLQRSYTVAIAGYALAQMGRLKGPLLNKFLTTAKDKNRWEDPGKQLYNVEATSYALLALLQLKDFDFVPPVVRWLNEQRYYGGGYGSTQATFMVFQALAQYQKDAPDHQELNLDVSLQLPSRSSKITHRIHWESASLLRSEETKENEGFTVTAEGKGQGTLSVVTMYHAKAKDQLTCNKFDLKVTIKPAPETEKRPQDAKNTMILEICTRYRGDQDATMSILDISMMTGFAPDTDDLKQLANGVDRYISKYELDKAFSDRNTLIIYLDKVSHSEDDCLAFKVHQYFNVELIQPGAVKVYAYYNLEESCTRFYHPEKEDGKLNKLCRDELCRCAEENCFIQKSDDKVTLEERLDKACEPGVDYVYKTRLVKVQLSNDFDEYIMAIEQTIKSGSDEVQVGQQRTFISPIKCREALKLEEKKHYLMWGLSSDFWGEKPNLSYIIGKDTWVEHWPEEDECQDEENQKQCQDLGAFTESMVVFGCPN
binder,measurement,value
B1,inhibition of hemolysis IC50,< 100 nM
B2,inhibition of hemolysis IC50,< 250 nM
B3,inhibition of hemolysis IC50,< 100 nM
B4,inhibition of hemolysis IC50,< 250 nM
B5,inhibition of hemolysis IC50,< 250 nM
B6,inhibition of hemolysis IC50,< 250 nM
B7,inhibition of hemolysis IC50,< 250 nM
B8,inhibition of hemolysis IC50,< 250 nM
B9,inhibition of hemolysis IC50,< 250 nM
B10,inhibition of hemolysis IC50,< 100 nM
B11,inhibition of hemolysis IC50,< 500 nM
B12,inhibition of hemolysis IC50,< 100 nM
B13,inhibition of hemolysis IC50,< 100 nM
B14,inhibition of hemolysis IC50,< 250 nM
